Reference: patent US20240401239A1 (US Dept. of Health and Human Services, published 2024)

Experiments:
[1] = target: SARS-COV-2 S protein (Wuhan-Hu-1, WT) on MLV pseudotyped particles (SARS-COV-2, UniProt P0DTC2 14-1254); test: cell-based or functional assay
[2] = target: spike protein of authentic SARS-COV-2 virus (USA_WA1/2020) (SARS-COV-2, UniProt P0DTC2 14-1273); test: cell-based or functional assay
[3] = target: SARS-COV-2 spike protein receptor binding domain fused to an Fc tag (RBD-Fc, residues 319-541) (Sino … (SARS-COV-2, UniProt P0DTC2 319-541))
[4] = target: T1, mitochondrial elongation factor 1 (MIEF1) (human, UniProt Q9NQG6 1-463); test: flow cytometry validation after the membrane proteome array screen
T1 construct: whole, on cells
T1 sequence (Q9NQG6 whole entry): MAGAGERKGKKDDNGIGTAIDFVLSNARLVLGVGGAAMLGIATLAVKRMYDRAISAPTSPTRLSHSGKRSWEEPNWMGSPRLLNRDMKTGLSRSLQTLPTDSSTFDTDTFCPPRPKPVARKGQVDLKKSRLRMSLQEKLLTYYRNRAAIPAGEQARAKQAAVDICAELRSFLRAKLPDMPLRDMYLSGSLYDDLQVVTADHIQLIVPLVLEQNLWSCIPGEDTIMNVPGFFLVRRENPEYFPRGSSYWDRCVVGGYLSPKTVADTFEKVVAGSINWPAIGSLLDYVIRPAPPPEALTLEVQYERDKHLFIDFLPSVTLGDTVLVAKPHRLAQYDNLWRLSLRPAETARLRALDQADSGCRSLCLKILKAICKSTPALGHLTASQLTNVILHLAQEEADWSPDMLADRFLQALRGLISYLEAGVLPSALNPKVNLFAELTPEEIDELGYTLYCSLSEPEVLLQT

B1: RBD-1-2G-Fc (Fc fusion)
chain: EVQLVESGGGLVQPGGSLRLSCAASGFSSIVYMGWFRQAPGKGRELVAAIDASGSTTNYPDSVEGRFTISRDNAKRMVYLQMNSLRAEDTAVYYCAIAYFTSPEYVVSQGWGQGTQVTVSS
notes: also called bivalent format of RBD-1-2G
[1]
  IC50, pseudotyped particle entry assay, wildtype particles: 0.0102 µM
[2]
  IC50, SARS-COV-2 live virus (CPE) assay on Vero E6 cells: 0.255 µM

B2: single-domain antibody RBD-1-2G (VHH)
VHH: EVQLVESGGGLVQPGGSLRLSCAASGFSSIVYMGWFRQAPGKGRELVAAIDASGSTTNYPDSVEGRFTISRDNAKRMVYLQMNSLRAEDTAVYYCAIAYFTSPEYVVSQGWGQGTQVTVSS
notes: also called RBD-1-2G Nb; RBD-1-2G nanobody
[3]
  IC50: 0.0283 µM
[1]
  IC50, SARS-COV-2 pseudotyped particle entry assay (HEK293-ACE2 cells): 0.49 µM
  IC50, pseudotyped particle entry assay, wildtype particles: 0.512 µM
[2]
  IC50, SARS-COV-2 live virus (CPE) assay on Vero E6 cells: 1.21 µM
  IC50, SARS-COV-2 live virus assay, lyophilized and reconstituted RBD-1-2G: 5.9 µM
  IC50, SARS-COV-2 live virus assay, untreated RBD-1-2G: 14.8 µM
[4]
  binding result: no binding

B3: RBD-1-2G-Tri (bispecific antibody)
chain: EVQLVESGGGLVQPGGSLRLSCAASGFSSIVYMGWFRQAPGKGRELVAAIDASGSTTNYPDSVEGRFTISRDNAKRMVYLQMNSLRAEDTAVYYCAIAYFTSPEYVVSQGWGQGTQVTVSSGGGGSGGGGSGGGGSEVQLVESGGGLVQPGGSLRLSCAASGFSSIVYMGWFRQAPGKGRELVAAIDASGSTTNYPDSVEGRFTISRDNAKRMVYLQMNSLRAEDTAVYYCAIAYFTSPEYVVSQGWGQGTQVTVSSGGGGSGGGGSGGGGSEVQLVESGGGLVQPGGSLRLSCAASGFSSIVYMGWFRQAPGKGRELVAAIDASGSTTNYPDSVEGRFTISRDNAKRMVYLQMNSLRAEDTAVYYCAIAYFTSPEYVVSQGWGQGTQVTVSSHHHHHH
[1]
  IC50, pseudotyped particle entry assay, wildtype particles: 0.0045 µM
[2]
  IC50, SARS-COV-2 live virus (CPE) assay on Vero E6 cells: 0.182 µM
